Reference: patent US8168188

Tests used:
[1] = biological target: amyloid β monomers (length not stated) (UniProt P05067); experiment: assay not stated
[2] = biological target: amylospheroid 40 (Homo sapiens (Human)) (UniProt P05067); experiment: SPR (BIAcore 3000), amylospheroid coupled to CM5 chip, antibody in solution
[3] = biological target: amylospheroid 42 (Homo sapiens (Human)) (UniProt P05067); experiment: as above

commercialized N-terminal antibodies 82E1 (IBL) (antibody)
reactivity with amyloid β monomers relative to reactivity with amylospheroid [1]: 2 fold

commercialized anti-amyloid β antibody 4G8
Kd [2]: 1.7 nM | Kd [3]: 3.2 nM

commercialized anti-amyloid β antibody 6E10
Kd [2]: 2.9 nM
